The results in this text go back to PMC12646661 (The Journal of Clinical Investigation, 2025).

The test addresses T1, rN2 (A/Hong Kong/1/1968), soluble recombinant neuraminidase (influenza A virus A/Hong Kong/1/1968 …).
T1 chain: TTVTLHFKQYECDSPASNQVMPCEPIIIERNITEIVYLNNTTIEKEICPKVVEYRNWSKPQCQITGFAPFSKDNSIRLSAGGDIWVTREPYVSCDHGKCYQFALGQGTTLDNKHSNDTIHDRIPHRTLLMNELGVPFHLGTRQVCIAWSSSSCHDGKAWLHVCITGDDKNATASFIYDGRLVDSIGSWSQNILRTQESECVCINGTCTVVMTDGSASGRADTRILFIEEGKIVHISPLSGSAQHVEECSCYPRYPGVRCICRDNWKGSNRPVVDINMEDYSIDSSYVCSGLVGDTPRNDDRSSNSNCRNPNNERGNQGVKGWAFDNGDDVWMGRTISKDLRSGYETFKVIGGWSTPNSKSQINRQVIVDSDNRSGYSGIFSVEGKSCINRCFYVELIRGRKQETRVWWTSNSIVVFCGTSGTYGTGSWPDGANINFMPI
Kind of test: ELISA. As to conditions: both partners purified.

B1: r1G01 (recombinant version of the previously described mAb 1G01) (antibody, V domains shown)
VH: EVQLVESGGRALRPGGSLRLSCAASGFKFDDYAMSWVRQVPGKGLEFVSGLNWNGDITAYTDSVKGRFTVSRDNAKNSLYLHINSPKPEDTALYYCARTSSWGDYTRGPEPKITWYFDLWGRGTLVTVSS
VL: DIQLTQSPSFLSASVGDRITITCRASQGIDGYLAWYQQRPGKAPNLLIYAASLLQSGVPSRFSGSGYGTEFTLTISSLQPEDFATYYCQHLDSYPLFTFGPGTKVDIK
Regarding B1, the binding result was “binds”.

B2: rFNI9 (recombinant version of the broadly neutralizing NA antibody FNI9) (antibody, V domains shown)
VH: QVHLVQSGAEVKEPGSSVTVSCKASGGSFNNQAISWVRQAPGQGLEWMGGIFPISGTPTSAQRFQGRVTFTADESTTTVYMDLSSLRSDDTAVYYCARAGSDYFNRDLGWENYYFASWGQGTLVTVSS
VL: EIVMTQSPATLSLSSGERATLSCRASRSVSSNLAWYQQKPGQAPRLLIYDASTRATGFSARFAGSGSGTEFTLTISSLQSEDSAIYYCQQYNNWPPWTFGQGTKVEIK
B2: the binding result is recorded as “binds”.
